A short description of this data set: protein stability index of a GFP-peptide fusion (GPS, HEK-293T) (PSI 1-6); higher = more stable.
The mark [1] stands for this setting: treatment: DMSO, c terminus: a fixed tail appended.
Where [2] appears, read: treatment: MLN4924 1 uM, 8 h, c terminus: a fixed tail appended.
Where [3] appears, read: treatment: DMSO, c terminus: native.
Setting [4] is: treatment: MLN4924 1 uM, 8 h, c terminus: native.

± gives the standard deviation.
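Also: 24-mer peptide tiles fused after GFP, lentivirally expressed, FACS-sorted into six equal bins by GFP/DsRed ratio, decoded by Illumina sequencing, PSI is the read-weighted mean bin number.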

In the case of ISFNKTMTQLSSTLARCAKDILGF [PKD2L1], the protein stability index reads like this: under setting [1], 2.96 ± 0.85; under setting [2], 2.62 ± 0.56.

On to ISGGVHNGEYVPWLYCYDPVMDVW [KLHL14], for which the protein stability index is 2.32 ± 0.33 under setting [1] and 2.59 ± 0.73 under setting [2].

With ISKSLELCNEISLSEIKDAPKVNA [DLC1], the protein stability index amounted to 4.12 ± 0.39 under setting [1] and 4.21 ± 0.066 under setting [2].

Under setting [1], ISSVGGEAMFCDFPKINHGILYDE [CFHR2] returned a protein stability index of 3.38 ± 0.26.

Consider IVRRFLNICENTEGAIAVHCKAGL [CDC14A], for which the protein stability index is, setting by setting: under setting [1], 2.36 ± 0.39; under setting [2], 2.11 ± 0.23.

IVSEVQFVESSGGGSSAVGQFVSL [BRF1]: the protein stability index is 2.25 ± 0.23 under setting [1] and 2.23 ± 0.26 under setting [2].

For the sequence IVSRATGRCLEVEMSKDANFGLRL [GALNT9], the protein stability index under setting [1] worked out at 2.66 ± 0.76 and the protein stability index under setting [2] is 2.72 ± 0.67.

In the case of IVVIPGKVEEVSLPEQVDIIISEP [CARM1], the protein stability index was found to be 2.47 ± 0.45 under setting [1] and 2.16 ± 0.29 under setting [2].

With KADIGAPSGFKHVSHVGWDPQNGF [WAS], the protein stability index was determined as 3.2 ± 0.37 under setting [1] and 3.33 ± 0.089 under setting [2].

As for KALEDFEDLCDRVFSDEDSELDN [FAM9B], the protein stability index runs as follows: under setting [3], 4.98 ± 0.16; under setting [4], 5.17 ± 0.3.

As to KATEPTETVQTWIELLTGETWNPF [GOLPH3L], the protein stability index reads like this: under setting [1], 2.36 ± 0.13; under setting [2], 2.5 ± 0.34.

For the sequence KCKAEHDQLLLNYAKKESDLNGAQ [LMNB1], the protein stability index was found to be 4.03 ± 0.38 under setting [1] and 4.01 ± 0.32 under setting [2].

For KDLFTQRQNSAPARMLSSNERDSS [CDC25A], the protein stability index under setting [1] worked out at 4.88 ± 0.23 and the protein stability index under setting [2] is 4.84 ± 0.25.

Turning to KDTRMAEEYCHKHYDRNKDGNKDV [VPS39], the protein stability index reads like this: under setting [1], 4.68 ± 0.21; under setting [2], 5.03 ± 0.23.

Consider KEIQYLKDLIEEVRKARGKKRVP [ATF4], for which the protein stability index is, setting by setting: under setting [3], 2.52 ± 0.47; under setting [4], 2.33 ± 0.47.

Regarding KELILDKVYTHPKWNTQTKARSYS [ZC2HC1C], the protein stability index is, setting by setting: under setting [1], 2.91 ± 0.44; under setting [2], 3.44 ± 0.46.

In the case of KERAAGGGAGSSEDDAQSRRDEQD [GOLPH3], the protein stability index reads like this: under setting [1], 5.65 ± 0.35; under setting [2], 5.67 ± 0.15.

As to KGEVPKGSCEDEPMDSTMDDAVAG [ATE1], the protein stability index is 5.48 ± 0.28 under setting [1] and 5.61 ± 0.17 under setting [2].

KGFPGCKLGLHDNHWVPACHSFNR [FBXO34]: the protein stability index runs as follows: under setting [1], 2.26 ± 0.69; under setting [2], 2.48 ± 0.15.

In turn, KGISSHSRSSLMPLRNDVDKRGET [SLC2A12] displayed a protein stability index under setting [1] of 5 ± 0.39 and a protein stability index under setting [2] of 5.06 ± 0.22.

As for KGKVLAQQGEYSEAIPILRAALKL [FKBP8], the protein stability index is, setting by setting: under setting [1], 2.37 ± 0.38; under setting [2], 2.42 ± 0.56.

In turn, KGNLLRHIKLHSGEKPFKCHLCNY [IKZF1] showed a protein stability index under setting [1] of 2.37 ± 0.38 and a protein stability index under setting [2] of 2.4 ± 0.23.

Regarding KGPLVPFPNQKSEAAEPPKTPPSS [KMT5A], the protein stability index reads like this: under setting [1], 5.25 ± 0.25; under setting [2], 5.39 ± 0.21.

In the case of KHLTDTSHGVRNKCLQLLGNLGSL [INTS4], the protein stability index is, setting by setting: under setting [1], 2.45 ± 0.4; under setting [2], 2.46 ± 0.42.

The sequence KIGYHLLYYLRASKAAAGKMNLYE [INTS3] registered a protein stability index under setting [1] of 2.3 ± 0.49 and a protein stability index under setting [2] of 2.25 ± 0.23.

With KKAWDDLKKYLEPRCPRMVLSLKE [FBXO3], the protein stability index came to 2.78 ± 0.26 under setting [1] and 2.86 ± 0.17 under setting [2].

For the sequence KKCGRENWTVAFAPDGSYFAWSQG [WSB1], the protein stability index by setting is: under setting [1], 2.33 ± 0.53; under setting [2], 2.22 ± 0.31.

As for KKSRSPASAEAPGDSGERSEGEAM [ZNF511], the protein stability index came to 5.53 ± 0.39 under setting [1] and 5.57 ± 0.1 under setting [2].

For the sequence KKWGINTYKCTKQLLSERFGRGSR [ARFIP2], the protein stability index reads like this: under setting [1], 2.65 ± 0.28; under setting [2], 2.86 ± 0.53.

On to KLKPLGEAEREFILNLKKKECKDR [NLN], for which the protein stability index runs as follows: under setting [1], 4.17 ± 0.23; under setting [2], 4.45 ± 0.2.

KLPSSGSGKRLSGVSSVDSAFSSR [RIPK4]: the protein stability index reads like this: under setting [1], 3.9 ± 0.095; under setting [2], 3.99 ± 0.4.

KLRHLDISRDRLSSYYKFKLTREV [ZER1]: the protein stability index is, setting by setting: under setting [1], 2.35 ± 0.13; under setting [2], 2.39 ± 0.31.

On to KLSARDHQKLEREARICRLLKHPN [CAMK2D], for which the protein stability index stood at 3.38 ± 0.31 under setting [1] and 3.8 ± 0.39 under setting [2].

Take KLTREVLSLFVQKLGNLMSLDISG [ZER1]: the protein stability index under setting [1] came out at 2.86 ± 0.81 and the protein stability index under setting [2] was found to be 2.56 ± 0.46.

With KMKFVIGNGKNLVDFTFVENVVHG [NSDHL], the protein stability index turned out to be 2.24 ± 0.19 under setting [1] and 2.24 ± 0.47 under setting [2].

On to KMKHHLTEHMKTHTGLKPYECGVC [ZBTB22], for which the protein stability index under setting [1] is 3.32 ± 0.28 and the protein stability index under setting [2] is 3.5 ± 0.47.

Take KMLLMYCAKMEKDGYGMTPLLSAS [FEM1C]: the protein stability index was found to be 2.56 ± 0.67 under setting [1] and 2.11 ± 0.46 under setting [2].

Take KNLYKLASQCCGVHVISLHIWELS [PTGFR]: the protein stability index was 2.97 ± 0.15 under setting [1] and 3.06 ± 0.48 under setting [2].

For the sequence KNVEENLYSSSLGGGVATSPMLIV [GLT8D2], the protein stability index was 2.26 ± 0.26 under setting [1] and 2.06 ± 0.22 under setting [2].

The sequence KNVELKFVDSIRRQFEFSVDSFQI [TENT5C] displayed a protein stability index under setting [1] of 2.29 ± 0.6 and a protein stability index under setting [2] of 2.42 ± 0.39.

On to KPLFCGNSEADQLGKIFDLIGLPP [CDK4], for which the protein stability index was 2.62 ± 0.15 under setting [1] and 2.71 ± 0.28 under setting [2].

The sequence KPLTLEALGHLGNDDSADYQHFLQ [DLC1] displayed a protein stability index under setting [1] of 4.23 ± 0.12 and a protein stability index under setting [2] of 4.33 ± 0.15.

With KPSKELKPLLGSAVLGLLLVLAAV [MYORG], the protein stability index runs as follows: under setting [1], 2.4 ± 0.25; under setting [2], 2.34 ± 0.28.

KQIAGGDVTAKNIWLAESVLDILT [INTS3]: the protein stability index under setting [1] came to 2.2 ± 0.064 and the protein stability index under setting [2] turned out to be 2.13 ± 0.26.

On to KQIAVAITEALRPAGVGVVVEATH [GCH1], for which the protein stability index was 2.37 ± 0.28 under setting [1] and 2.42 ± 0.25 under setting [2].

Turning to KQKTSAALSTMGTLICRKLGGVKK [TPD52L3], the protein stability index came to 2.98 ± 0.29 under setting [1] and 2.83 ± 0.34 under setting [2].

On to KQPNCSSLFKLKPLSNKTATDDTG [PLD5], for which the protein stability index reads like this: under setting [1], 4.46 ± 0.13; under setting [2], 4.772 ± 0.045.

Sequence KRKREEEEEKEPLAVDSWWLDPGH [SERTAD1] registered a protein stability index under setting [1] of 4.64 ± 0.38 and a protein stability index under setting [2] of 4.79 ± 0.15.

As for KSHLIFPQPNYADTLISQESCEKN [PCDHGA10], the protein stability index is, setting by setting: under setting [1], 4.32 ± 0.17; under setting [2], 4.32 ± 0.21.

With KSITSAMNELQHDLDVVSDALAKV [TPH1], the protein stability index turned out to be 4.4 ± 0.18 under setting [1] and 4.47 ± 0.12 under setting [2].

As to KSRRKAALSSPRSRKNATQPPNAE [INTS3], the protein stability index under setting [1] stood at 5.08 ± 0.33 and the protein stability index under setting [2] came out at 4.98 ± 0.39.

With KSYNICFELEDSNEIFTQLYRTLF [PDS5B], the protein stability index by setting is: under setting [1], 3.05 ± 0.83; under setting [2], 2.87 ± 0.61.

For KTEDENKQSFLDGGKGHHLPSENL [TOR1AIP2], the protein stability index runs as follows: under setting [1], 5.4 ± 0.21; under setting [2], 5.27 ± 0.22.

The values above are taken from the supplement of paper PMC10567573.
